Target: T1, HA-tagged caspase-1 p10 plus p20 C285S active-site mutant (human, UniProt P29466 120-297; P29466 317-404, C285S)
T1 sequence (looked up) 1: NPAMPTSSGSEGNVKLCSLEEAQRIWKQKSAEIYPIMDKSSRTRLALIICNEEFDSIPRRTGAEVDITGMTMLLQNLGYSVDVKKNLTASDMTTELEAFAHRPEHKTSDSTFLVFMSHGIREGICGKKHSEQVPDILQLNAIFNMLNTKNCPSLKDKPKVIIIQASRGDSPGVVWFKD
T1 sequence (looked up) 2: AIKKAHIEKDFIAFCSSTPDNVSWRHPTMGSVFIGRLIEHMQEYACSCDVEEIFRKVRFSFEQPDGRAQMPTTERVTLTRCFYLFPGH
Assay: non-reducing SDS-PAGE with Western blot

binding result: binds
B1: active recombinant human PRDX4 (non-reduced) (enzyme, UniProt Q13162 38-271, looked up)
chain: WETEERPRTREEECHFYAGGQVYPGEASRVSVADHSLHLSKAKISKPAPYWEGTAVIDGEFKELKLTDYRGKYLVFFFYPLDFTFVCPTEIIAFGDRLEEFRSINTEVVACSVDSQFTHLAWINTPRRQGGLGPIRIPLLSDLTHQISKDYGVYLEDSGHTLRGLFIIDDKGILRQITLNDLPVGRSVDETLRLVQAFQYTDKHGEVCPAGWKPGSETIIPDPAGKLKYFDKLN

From PMC6792017 (The EMBO Journal, 2019)
